From the supplement of paper PMC10567573

B1: CCND1 (parent)
chain: IRRAYPDANLLNDRVLRAMLKAEE
B2: SPDEF (parent)
chain: FQELAGKELCAMSEEQFRQRSPLG

Variants of: B1
Assay: protein stability index of a GFP-peptide fusion (GPS, HEK-293T) (PSI 1-6); higher = more stable
Conditions: c terminus: a fixed tail appended
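Further: lentivirally expressed fusions sorted by FACS into six bins by GFP to DsRed ratio, PSI derived from sequencing read proportions per bin multiplied by bin number.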

Point of comparison: IRRAYPDANLLNDRVLRAMLKAES [E24S], protein stability index 3.28. Against it:
- IRRAYPDANLLNDRVLRAMLKAQE [E23Q] — lower, 3.18
- IRRAYPDANLLNDRVLRAMLKARE [E23R] — lower, 2.37
- IRRAYPDANLLNDRVLRAMLKASE [E23S] — lower, 2.3
- IRRAYPDANLLNDRVLRAMLKATE [E23T] — lower, 2.61
- IRRAYPDANLLNDRVLRAMLKAVE [E23V] — lower, 1.8
- IRRAYPDANLLNDRVLRAMLKAWE [E23W] — lower, 1.84
- IRRAYPDANLLNDRVLRAMLKAYE [E23Y] — lower, 2.45
- IRRAYPDANLLNDRVLRAMLKAEA [E24A] — higher, 3.57
- IRRAYPDANLLNDRVLRAMLKAEC [E24C] — lower, 2.08
- IRRAYPDANLLNDRVLRAMLKAED [E24D] — lower, 2.67
- IRRAYPDANLLNDRVLRAMLKAEF [E24F] — lower, 1.55
- IRRAYPDANLLNDRVLRAMLKAEH [E24H] — lower, 2.04
- IRRAYPDANLLNDRVLRAMLKAEI [E24I] — lower, 3
- IRRAYPDANLLNDRVLRAMLKAEK [E24K] — lower, 2.05
- IRRAYPDANLLNDRVLRAMLKAEL [E24L] — lower, 1.8
- IRRAYPDANLLNDRVLRAMLKAEM [E24M] — lower, 1.87
- IRRAYPDANLLNDRVLRAMLKAEN [E24N] — lower, 2.7
- IRRAYPDANLLNDRVLRAMLKAEP [E24P] — lower, 2.39
- IRRAYPDANLLNDRVLRAMLKAER [E24R] — lower, 2.02
- IRRAYPDANLLNDRVLRAMLKAET [E24T] — lower, 2.33
- IRRAYPDANLLNDRVLRAMLKAEV [E24V] — lower, 1.23
- IRRAYPDANLLNDRVLRAMLKAEW [E24W] — lower, 1.52
- IRRAYPDANLLNDRVLRAMLKAEY [E24Y] — lower, 1.35

Variants of: B2
Assay: as above
Conditions: c terminus: a fixed tail appended

Point of comparison: FQDLAGKELCAMSEEQFRQRSPLG [E3D], protein stability index 2.1. Against it:
- AQELAGKELCAMSEEQFRQRSPLG [F1A] — higher, 4.29
- CQELAGKELCAMSEEQFRQRSPLG [F1C] — higher, 3.9
- DQELAGKELCAMSEEQFRQRSPLG [F1D] — higher, 4.94
- EQELAGKELCAMSEEQFRQRSPLG [F1E] — higher, 5.36
- GQELAGKELCAMSEEQFRQRSPLG [F1G] — higher, 4.57
- HQELAGKELCAMSEEQFRQRSPLG [F1H] — higher, 4.02
- IQELAGKELCAMSEEQFRQRSPLG [F1I] — higher, 3.88
- KQELAGKELCAMSEEQFRQRSPLG [F1K] — higher, 4.58
- LQELAGKELCAMSEEQFRQRSPLG [F1L] — higher, 4.45
- MQELAGKELCAMSEEQFRQRSPLG [F1M] — higher, 3.98
- NQELAGKELCAMSEEQFRQRSPLG [F1N] — higher, 4.72
- PQELAGKELCAMSEEQFRQRSPLG [F1P] — higher, 4.49
- QQELAGKELCAMSEEQFRQRSPLG [F1Q] — higher, 4.93
- RQELAGKELCAMSEEQFRQRSPLG [F1R] — higher, 4.99
- SQELAGKELCAMSEEQFRQRSPLG [F1S] — higher, 4.61
- TQELAGKELCAMSEEQFRQRSPLG [F1T] — higher, 4.55
- VQELAGKELCAMSEEQFRQRSPLG [F1V] — higher, 4.27
- WQELAGKELCAMSEEQFRQRSPLG [F1W] — higher, 2.93
- YQELAGKELCAMSEEQFRQRSPLG [F1Y] — higher, 3.02
- FAELAGKELCAMSEEQFRQRSPLG [Q2A] — lower, 2.07
- FCELAGKELCAMSEEQFRQRSPLG [Q2C] — higher, 2.36
- FDELAGKELCAMSEEQFRQRSPLG [Q2D] — higher, 4.74
- FEELAGKELCAMSEEQFRQRSPLG [Q2E] — higher, 4.17
- FFELAGKELCAMSEEQFRQRSPLG [Q2F] — higher, 3.35
- FGELAGKELCAMSEEQFRQRSPLG [Q2G] — higher, 2.44
- FHELAGKELCAMSEEQFRQRSPLG [Q2H] — higher, 2.57
- FIELAGKELCAMSEEQFRQRSPLG [Q2I] — higher, 2.17
- FKELAGKELCAMSEEQFRQRSPLG [Q2K] — higher, 3.61
- FLELAGKELCAMSEEQFRQRSPLG [Q2L] — higher, 2.12
- FMELAGKELCAMSEEQFRQRSPLG [Q2M] — higher, 2.65
- FNELAGKELCAMSEEQFRQRSPLG [Q2N] — higher, 4.11
- FPELAGKELCAMSEEQFRQRSPLG [Q2P] — higher, 2.86
- FRELAGKELCAMSEEQFRQRSPLG [Q2R] — higher, 3.32
- FSELAGKELCAMSEEQFRQRSPLG [Q2S] — higher, 2.55
- FTELAGKELCAMSEEQFRQRSPLG [Q2T] — lower, 1.94
- FVELAGKELCAMSEEQFRQRSPLG [Q2V] — higher, 2.73
- FWELAGKELCAMSEEQFRQRSPLG [Q2W] — higher, 2.14
- FYELAGKELCAMSEEQFRQRSPLG [Q2Y] — higher, 2.96
- FQALAGKELCAMSEEQFRQRSPLG [E3A] — higher, 3.06
- FQCLAGKELCAMSEEQFRQRSPLG [E3C] — higher, 2.48
- FQFLAGKELCAMSEEQFRQRSPLG [E3F] — lower, 1.95
- FQGLAGKELCAMSEEQFRQRSPLG [E3G] — higher, 2.11
- FQHLAGKELCAMSEEQFRQRSPLG [E3H] — higher, 3.36
- FQILAGKELCAMSEEQFRQRSPLG [E3I] — higher, 2.55
- FQKLAGKELCAMSEEQFRQRSPLG [E3K] — higher, 3.3
- FQLLAGKELCAMSEEQFRQRSPLG [E3L] — higher, 2.22
- FQMLAGKELCAMSEEQFRQRSPLG [E3M] — lower, 1.79
- FQNLAGKELCAMSEEQFRQRSPLG [E3N] — higher, 3.09
- FQPLAGKELCAMSEEQFRQRSPLG [E3P] — higher, 2.64
- FQQLAGKELCAMSEEQFRQRSPLG [E3Q] — higher, 3.45
- FQRLAGKELCAMSEEQFRQRSPLG [E3R] — higher, 3.33
- FQSLAGKELCAMSEEQFRQRSPLG [E3S] — higher, 2.34
- FQTLAGKELCAMSEEQFRQRSPLG [E3T] — higher, 2.22
- FQVLAGKELCAMSEEQFRQRSPLG [E3V] — higher, 2.44
- FQWLAGKELCAMSEEQFRQRSPLG [E3W] — lower, 1.72
- FQYLAGKELCAMSEEQFRQRSPLG [E3Y] — higher, 2.69
- FQEAAGKELCAMSEEQFRQRSPLG [L4A] — higher, 3.35
- FQECAGKELCAMSEEQFRQRSPLG [L4C] — higher, 4.02
- FQEDAGKELCAMSEEQFRQRSPLG [L4D] — higher, 4.38
- FQEEAGKELCAMSEEQFRQRSPLG [L4E] — higher, 4.48
- FQEFAGKELCAMSEEQFRQRSPLG [L4F] — higher, 2.84
- FQEGAGKELCAMSEEQFRQRSPLG [L4G] — higher, 3.97
- FQEHAGKELCAMSEEQFRQRSPLG [L4H] — higher, 3.85
- FQEIAGKELCAMSEEQFRQRSPLG [L4I] — higher, 3.15
- FQEKAGKELCAMSEEQFRQRSPLG [L4K] — higher, 3.59
- FQEMAGKELCAMSEEQFRQRSPLG [L4M] — higher, 2.6
- FQENAGKELCAMSEEQFRQRSPLG [L4N] — higher, 3.8
- FQEPAGKELCAMSEEQFRQRSPLG [L4P] — higher, 3.99
- FQEQAGKELCAMSEEQFRQRSPLG [L4Q] — higher, 3.91
